B1: PP2Ac^150-309 fused to the GAL4 DNA binding domain (enzyme)
chain: FDYLPLTALVDGQIFCLHGGLSPSIDTLDHIRALDRLQEVPHEGPMCDLLWSDPDDRGGWGISPRGAGYTFGQDISETFNHANGLTLVSRAHQLVMEGYNWCHDRNVVTIFSAPNYCYRCGNQAAIMELDDTLKYSFLQFDPAPRRGEPHVTRRTPDYFL
B2: full length human PR55α fused to the GAL4 DNA binding domain (other)
chain: MAGAGGGNDIQWCFSQVKGAVDDDVAEADIISTVEFNHSGELLATGDKGGRVVIFQQEQENKIQSHSRGEYNVYSTFQSHEPEFDYLKSLEIEEKINKIRWLPQKNAAQFLLSTNDKTIKLWKISERDKRPEGYNLKEEDGRYRDPTTVTTLRVPVFRPMDLMVEASPRRIFANAHTYHINSISINSDYETYLSADDLRINLWHLEITDRSFNIVDIKPANMEELTEVITAAEFHPNSCNTFVYSSSKGTIRLCDMRASALCDRHSKLFEEPEDPSNRSFFSEIISSISDVKFSHSGRYMMTRDYLSVKIWDLNMENRPVETYQVHEYLRSKLCSLYENDCIFDKFECCWNGSDSVVMTGSYNNFFRMFDRNTKRDITLEASRENNKPRTVLKPRKVCASGKRKKDEISVDSLDFNKKILHTAWHPKENIIAVATTNNLYIFQDKVN
B3: PP2Ac^100-309 fused to the GAL4 DNA binding domain (enzyme)
chain: LVALKVRYRERITILRGNHESRQITQVYGFYDECLRKYGNANVWKYFTDLFDYLPLTALVDGQIFCLHGGLSPSIDTLDHIRALDRLQEVPHEGPMCDLLWSDPDDRGGWGISPRGAGYTFGQDISETFNHANGLTLVSRAHQLVMEGYNWCHDRNVVTIFSAPNYCYRCGNQAAIMELDDTLKYSFLQFDPAPRRGEPHVTRRTPDYFL
B4: GAL4 transactivation domain alone (empty vector pGAD424) (other)
chain: ANFNQSGNIADSSLSFTFTNSSNGPNLITTQTNSQALSQPIASSNVHDNFMNNEITASKIDDGNNSKPLSPGWTDQTAYNAFGITTGMFNTTTMDDVYNYLFDDEDTPPNPKKE

Columns and labels:
[1] = target: full length human eRF1 fused to the GAL4 transactivation domain (yeast; human, UniProt P62495); experiment: yeast two-hybrid: His growth (HF7c) and colony colour in filter β-Gal assay (SFY526)
Description: PCR products encoding three N-terminal (PP2Ac^50-309, PP2Ac^100-309 and PP2Ac^150-309) and three C-terminal (PP2Ac^1-259, PP2Ac^1-209 and PP2Ac^1-159) truncations of PP2Acα are subcloned into pGBT9 in-frame with the GAL4 DNA binding domain. Control plasmids encoding wild-type GAL4 protein (pCL1), SV40 large T antigen (pTD1), p53 (pVA3) and lamin C (pLAM5'), the latter three fused to the appropriate domains of GAL4, are provided by the manufacturer and used for control interactions. Expression constructs are transformed into *S. cerevisiae* host strains SFY526 (lacZ reporter gene) and HF7c (lacZ and HIS3 reporter genes). […] The expression of the lacZreporter gene is determined by measuring β-galactosidase activity using 5-bromo-4-chloro-3-indolyl-β-D-galactoside [X-Gal] and O-nitrophenyl-β-D-galactoside [ONPG] as substrates, whereas the expression of HIS3 reporter gene is assessed by monitoring growth on triple selective SD medium lacking leucine, tryptophan and histidine. All media and reagents are prepared according to the manufacturer's recommendations. Transcriptional activation of reporter genes driven by wild-type GAL4 protein or brought about by the interaction between SV40 largeT and p53 are used as positive controls. To exclude intrinsic transcriptional activation capacity or non-specific binding of either molecules to unrelated proteins, cotransformations with the empty vector or vector encoding human lamin C fused to the opposite domain of GAL4 are used as negative controls.

[2] = target: full length human PP2Acα fused to the GAL4 DNA binding domain (yeast; human); experiment: yeast two-hybrid, empty vector control: His growth (HF7c) and filter β-Gal colour (SFY526)
[3] = target: PP2Ac^50-309 fused to the GAL4 DNA binding domain (yeast; human, UniProt P04386); experiment: as above
[4] = target: B3; experiment: as above
[5] = target: B1; experiment: as above
[6] = target: PP2Ac^1-259 fused to the GAL4 DNA binding domain (yeast; human, UniProt P04386); experiment: as above
[7] = target: PP2Ac^1-209 fused to the GAL4 DNA binding domain (yeast; human, UniProt P04386); experiment: as above
[8] = target: PP2Ac^1-159 fused to the GAL4 DNA binding domain (yeast; human, UniProt P04386); experiment: as above
[9] = target: full length human PR65α fused to the GAL4 DNA binding domain (yeast; human); experiment: as above
[10] = target: B2; experiment: as above

Measured: binding result

B1
no binding: [1]

B2
no binding: [1]

B3
no binding: [1]

B4
not listed: [1]
no binding: all other assays above
